Data on one substance can be found in PMC3663845.

The target in this test is active (cleaved) presenilin of γ-secretase, marked at the active site by the inhibitor GTB (mouse (endogenous in primary hippocampal neurons)). The test is described as follows: proximity ligation; in situ PLA with 200 nM GTB (photoreactive biotinylated γ-secretase inhibitor, UV-irradiated, probed with streptavidin-oligonucleotide PLUS) in place of the PS antibody and mouse nicastrin-CT antibody (anti-mouse MINUS probe); fixed, 0.4% CHAPSO-permeabilised mouse primary hippocampal neurons; 10 µM L-685,458 as competitor of GTB in the control.

For the substance “nicastrin (from UniProt P57716 28-708) (natural protein)”, the PLA signals per cell was 214 signals/cell, the fold increase of PLA signals over the sum of the negative controls (first way of calculating) is 4.5 fold and the fold increase of PLA signals over the sum of the negative controls (second way of calculating) is 4.5 fold.
